# Fewer inactive variants are shown than the library holds.
# B1: TPR 5TU (parent)
# chain: GGAUCUUCUCGAUCUAACAAAAAAGACAAAUCUGCCACAAAGCUUGAGAGCAUCUUCGGAUGCAGAGGCGGCAGCCUUCGGUGGCGCGAUAGCGCCAACGUUCUCAACUAUGACACGCAAAACGCGUGCUCCGUUGAAUGGAGUUUAUCAUG
# Variants of: B1
# Assay: polymerase ribozyme fitness, log enrichment relative to wild type (log ratio); higher = more active; in vitro selection for triplet polymerase activity
# Method in brief: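 Only genotypes with ≥10 input reads and ≥1 read per output were kept after Illumina sequencing of input and output libraries. These libraries were PCR-built, transcribed mutants of each subunit of a heterodimeric triplet polymerase ribozyme, each put through one triplicate in vitro selection round with frozen incubation at −7 °C, gel excision of extended constructs, streptavidin-bead capture and RT-PCR. Fitness is a logarithmic ratio of genotype enrichment to wild-type enrichment, from inverse-variance-weighted replicate averages, with the logarithm in base 2.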
row,Variant,polymerase ribozyme fitness (log ratio)
1,A52C G67C A89C A106G A107G,≤ -4.2
2,C51U C75U C118U,-1.3
3,A52G C63U C93U U145G C149U,-4.11
4,A52G C57A G83U A91G C95A,-4.15
5,A52C G84U C96U U144A,≤ -4.2
6,A52G C79U G92A C116G,≤ -4.2
7,A52C C116G,-1.21
8,A52G G81A,-0.481
9,A52U A150G,-1.24
10,A52G G62A C85U,-1.4
11,C51U A64C C79A C85U A142G,≤ -4.2
12,C51U A89G G141U,-0.598
13,A52C U55A U56A G86C,-4.01
14,C51U G94A C118U,-1.44
15,A52C G59A G68A C79U G92U U104G,≤ -4.2
16,C51U C108U,-3.72
17,C51G U56G C93U,-3.95
18,A52G A66U A91U,≤ -4.2
19,A52U A73G U102C,≤ -4.2
20,C51U U53G A119U G143C,≤ -4.2
21,A52C G84A C116G A120U,-1.12
22,A52C U53A G65A A66C C79U C149U,≤ -4.2
23,A52C A60G,-0.764
24,C51U C95U U104G U144A,-2.33

row,Variant,polymerase ribozyme fitness (log ratio)
1,C51U A73G C96G C123U,-0.999
2,A52C C85U G94C G141C,-3.45
3,C51U G88C,-4.09
4,C51U G141C,-0.423
5,C51U G81C C87U C116A G124A U134A U148A,≤ -4.2
6,A52C G58A A147U,-0.233
7,A52C U101G,-1.56
8,A52C C69G G84U A115C,≤ -4.2
9,C51U C54G C85U U101G A137G U144G,≤ -4.2
10,A52G G86U C96G U144C U151C,≤ -4.2
11,A52G C76U C93G,-2.91
12,C51U C76U C96U A137U U144C U151A,≤ -4.2
13,A52G G84A C116G,-2.02
14,C51U U53A C93A G124U,-3.59
15,C51U C96U,-0.419
16,C51U C72U G92C A98G U127G A138C G140A,≤ -4.2
17,C51U C99U,-0.392
18,A52G U56A,-0.876
19,A52C U148A,-4.18
20,A52G G84A G136A,-0.512
21,A52G C114A,-3.48
22,A52U A73U A89C G92C C129G A137U,≤ -4.2
23,C51U U53A U61A A97C G140A G143A,≤ -4.2
24,A52U A73U G92U,-3.66

row,Variant,polymerase ribozyme fitness (log ratio)
1,A52C G86A,-1.2
2,A52C G86C,-4.07
3,A52C C99U,-1.81
4,A52C C99G,-4.11
5,A52G C96U A122U,-0.85
6,A52C G84U,-2.64
7,A52C G84A,-1.32
8,A52G A73G,-0.266
9,A52C U55A G62C G84A C105U C114U G141A C149A,≤ -4.2
10,C51U U61C C76U G94C A121U C125G U145A,≤ -4.2
11,A52C U53A G88C C95U U145C,≤ -4.2
12,A52G C93U C116U,-1.48
13,C51U C69U C96G,-3.06
14,C51U U53A C96G G124U A147U,-3.84
15,A52G C57A G94U G117U A121C C131G,≤ -4.2
16,C51U C85G A115C,-1.9
17,C51U C54U C85A A98U,-2.81
18,A52C U56C C57A G67A C85U A97U U146G U151G,≤ -4.2
19,C51U U56A,-0.892
20,A52U A89G,-3.14
21,A52G A89U G124U G136C,-3.18
22,C51U A73G G92U,-0.595
23,A52C G94C A106G,-1.86
24,A52G G83U U101A A115U,-3.39

row,Variant,polymerase ribozyme fitness (log ratio)
1,A52G U135G U139C A147C,≤ -4.2
2,C51G G84U,-3.11
3,C51U C96A C105A C118U,-2.94
4,C51U A60G C85A,-3.39
5,C51U U56A G71C G84A G140A A142U,≤ -4.2
6,A52G G83C C105A,-2.55
7,A52G A73U G84A,-2.15
8,C51U C95G A110U G141U,≤ -4.2
9,C51U G92C U135C,-3.1
10,A52U C75U A147U,-2.82
11,A52G A73G C99U G117A,-1.7
12,A52G G84U U144G,-1.56
13,A52C G68A G94C C99U C108G A120C G143C,≤ -4.2
14,A52G U90A A142G,≤ -4.2
15,A52C C96U A119U U130G,≤ -4.2
16,A52G G71U C96U,-4.1
17,C51U C95A A98U C116G,0.822
18,A52C U55A G74U G88U G92U C105G A107G,≤ -4.2
19,A52C C75U A97U U109G C114A,-3.53
20,A52U C54G,-2.21
21,A52U C54U,-1.2
22,C51U A98U U135C U144A,-3.82
23,A52C G94A,-0.384
24,A52U C57U G83C,-3.29

row,Variant,polymerase ribozyme fitness (log ratio)
1,A52G U55A G92U,-0.803
2,A52C U53A,-3.29
3,A52G C85U G86U C118G U144C C149G,≤ -4.2
4,C51U C87U A121U,-0.813
5,C51G G84A C95G A119G,-2.85
6,A52C G92U G152U,-3.32
7,A52U C57A C95A A97U,-2.33
8,C51G U56A,-2.67
9,A52C U55C G83A U151A G152A,≤ -4.2
10,A52G G68U C99G,≤ -4.2
11,C51U G59C C72A,≤ -4.2
12,C51U U55A U56A G58C U82A A150C,≤ -4.2
13,A52G C87U C93U C131A G136A G143C U145G U146G,≤ -4.2
14,C51U G62A U139G,-0.262
15,A52C G58A C93A C118U,-3.55
16,A52G C76U C85G C123A U144G,-0.879
17,A52G G81A G83A A98U,-1.22
18,A52C U53A G86A C87U C105A A106U,≤ -4.2
19,A52G C75A U82A C95A,≤ -4.2
20,C51G U56A G117U,-2.86
21,A52G G84A,-1.03
22,A52G G84U,-1.32
23,A52C C96U U130A U144G A147C,-3.6
24,C51U G92U C99A A106G C123G C129U,-2.74

row,Variant,polymerase ribozyme fitness (log ratio)
1,A52C G92U C103G A106C,≤ -4.2
2,A52G G58C G68A C76A C85U U90G G117U,≤ -4.2
3,A52C A122G,-1.4
4,A52G A60U C85A G94U C96G,-3.93
5,A52C C85U A147G,-3.76
6,A52G G67U A142G,-3.52
7,A52G U56G A60C C85G G143U,≤ -4.2
8,A52C G58U G65U C69A G80C C103A C108G,≤ -4.2
9,A52G A106G,-0.771
10,A52G C93U C96U G136C A138G U146A,≤ -4.2
11,C51U C85G,-2.53
12,C51U C85A,-2.63
13,A52G C57A G92U,-0.753
14,A52C A98U,-0.983
15,A52C C87U,-0.789
16,A52G U53C G58A A142C,-3.35
17,C51U U56A A73U G86A,-4.02
18,A52G C103U,-1.06
19,A52G G88A C118A C123U G141C,≤ -4.2
20,A52G C75A G84U A110U,≤ -4.2
21,A52C A60C C79U C93A G152U,≤ -4.2
22,A52C G88A U146G A150C,≤ -4.2
23,C51U C93A,-2.34
24,C51U C93U,-2.53

row,Variant,polymerase ribozyme fitness (log ratio)
1,C51U A89C C96U A142U,-2.78
2,A52U A91U A115G C131U,≤ -4.2
3,A52U C57A U135C,-3.88
4,A52C U55A G59U,0.0736
5,A52U C69U G83C C116G,-4.13
6,A52C G70A U90G A106U,≤ -4.2
7,C51U G92U,-1.86
8,C51G U56A A106U,≤ -4.2
9,A52C U90G,≤ -4.2
10,A52G U104A A122G U139G,-1.23
11,A52U C54U A97U,-2.56
12,A52G U101G,-0.16
13,A52U C54A G70A A89G G92C A119C G126A G141A,≤ -4.2
14,A52C U55A U82C,-2.36
15,C51U A91G G100A A110U A121U,≤ -4.2
16,A52G G58C C99U,-0.284
17,A52C G83U A106G,-2.56
18,A52C G58U G59A C85A,-2.15
19,A52C G143C,-3.51
20,A52G C57G A73U G84A,-3.44
21,A52U C54U G92A A98G A120G U139C U144C U151A,≤ -4.2
22,A52G U109G A122U,-1.46
23,C51U G84U,-1.52

# From the RNAGym collection of RNA variant scans (doi:10.1073/pnas.2313332121)
